# Source: publication PMC7382241, “Genomic discovery of an evolutionarily programmed modality for small-molecule targeting of an intractable protein surface” (Proceedings of the National Academy of Sciences of the …, 2020)
# B1: CEP250_(11.4) (residues 2,134 to 2,231) (domain or fragment, human, UniProt Q9BV73 2134-2231, looked up)
# chain: MEEQSLKLDSLEPRLQRELERLQAALRQTEAREIEWREKAQDLALSLAQTKASVSSLQEVAMFLQASVLERDSEQQRLQDELELTRRALEKERLHSPG
# notes: human CEP250 residues 2,134 to 2,231; forms a homodimeric coiled coil in the crystal; tags not specified in the main text; Tags are in SI Materials and Methods; also called 11.4 kDa degradation product of CEP250; source: E. coli BL21(DE3)pLysS
# Molecular target: the molecule itself
# Test: crystal structure; CEP250_(11.4) with three-molar excess of FKBP12 and nine-molar excess of WDB002, ternary complex isolated by SEC; crystals in 0.1 M Hepes 7.0, 0.2 M sodium malonate, 21% PEG 3350
protein,measurement,value
B1,stoichiometry N,2
